± gives the uncertainty stated by the source.

B1: Membrane-associated guanylate kinase, WW and PDZ domain-containing protein 2, residues 601 to 682; numbered along this chain, Q86UL8 (parent)
chain: AELMTLTIVKGAQGFGFTIADSPTGQRVKQILDIQGCPGLCEGDLIVEINQQNVQNLSHTEVVDILKDCPIGSETSLIIHRG

Variants of B1 are the subject of this data set. Kind of data set: abundance fitness (aPCA) (normalised: wild type 0, dead -1); higher = more abundant; growth selection in yeast, the domain comes from the species named. Particulars: Homo sapiens.
Turning to D68A, the abundance fitness was -0.14 ± 0.15.
For the variant D68F, the abundance fitness is -0.304 ± 0.5.
Next, D68H: 0.222 ± 0.28; D68M: 0.027 ± 0.15.
Next, T7Q: -0.085 ± 0.048; T7P: -0.04 ± 0.046; T7C: -0.027 ± 0.042.
Next, T7K: 0.002 ± 0.05; T7L: -0.075 ± 0.036; E2Y: -0.094 ± 0.064.
As for E2M, the abundance fitness was -0.001 ± 0.044.
The figure for E2L is -0.131 ± 0.035; for E2R it is -0.098 ± 0.032; for E2K it is -0.093 ± 0.046.
As for G11L, the abundance fitness was -0.104 ± 0.039.
Take G11M: the abundance fitness is -0.095 ± 0.062.
Next, G11V: 0.027 ± 0.047; G11A: 0.018 ± 0.046; G11F: -0.114 ± 0.1.
The figure for G11K is -0.09 ± 0.058; for G11P it is 0.03 ± 0.056.
The figure for I19Q is -0.708 ± 0.32.
I19Y: the abundance fitness was -0.148 ± 0.12.
For the variant I19W, the abundance fitness was -0.203 ± 0.1.
Next, I19P: -0.023 ± 0.36; I19C: -0.335 ± 0.38; I19L: -0.012 ± 0.085.
In the case of I19S, the abundance fitness is -0.634 ± 0.17.
Next, N50W: -0.433 ± 0.15; N50Y: -0.386 ± 0.27.
The figure for N50R is -0.068 ± 0.057; for N50S it is -0.03 ± 0.068.
Next, D64G: -0.059 ± 0.071.
Consider D64T, for which the abundance fitness is -0.126 ± 0.12.
Consider D64C, for which the abundance fitness is -0.238 ± 0.18.
As to D64H, the abundance fitness came out at 0.195 ± 0.3.
The figure for D64N is -0.067 ± 0.3; for V54A it is -0.053 ± 0.04.
The figure for V54L is -0.089 ± 0.029.
Next, V54S: -0.243 ± 0.034; D44M: -0.572 ± 0.24.
For D44H, the abundance fitness is -0.79 ± 0.31.
With D44N, the abundance fitness is -0.21 ± 0.1.
With D44Y, the abundance fitness is -0.71 ± 0.2.
Next, L3Q: 0.014 ± 0.037; L3A: -0.03 ± 0.033; L3N: 0.056 ± 0.053.
Next, L3P: -0.2 ± 0.037.
Regarding L3C, the abundance fitness is -0.095 ± 0.047.
The figure for L77W is -0.072 ± 0.075.
For the variant L77M, the abundance fitness came to 0.008 ± 0.12.
For the variant L77P, the abundance fitness was -0.86 ± 0.24.
The figure for L77K is -0.892 ± 0.31; for L77R it is -1.17 ± 0.28.
The figure for L77T is -0.132 ± 0.12; for L77V it is -0.03 ± 0.062.
Consider R27E, for which the abundance fitness was -0.173 ± 0.1.
The figure for R27I is 0.047 ± 0.3; for R27S it is -0.158 ± 0.096; for R27D it is -0.42 ± 0.3.
The figure for Q51T is 0.005 ± 0.039; for Q51M it is -0.042 ± 0.047.
For the variant Q51D, the abundance fitness is -0.024 ± 0.05.
The figure for Q51I is -0.269 ± 0.048.
The figure for Q51K is -0.024 ± 0.042.
On to I31Y, for which the abundance fitness is -0.221 ± 0.14.
Next, I31K: 0.197 ± 0.41; V9N: -0.207 ± 0.11; V9D: -0.184 ± 0.065.
On to V9H, for which the abundance fitness was -0.222 ± 0.083.
For the variant V9W, the abundance fitness was -0.072 ± 0.037.
With V9A, the abundance fitness is -0.082 ± 0.035.
The figure for V9L is -0.139 ± 0.039; for V9C it is -0.12 ± 0.056; for T5V it is -0.088 ± 0.037.
The figure for T5P is -0.033 ± 0.048; for T5C it is -0.142 ± 0.058; for T5R it is -0.167 ± 0.036.
For T5D, the abundance fitness is -0.024 ± 0.075.
Next, N56Y: 0.074 ± 0.42.
Consider M4P, for which the abundance fitness was -0.081 ± 0.04.
Next, M4I: -0.061 ± 0.054.
The figure for M4Q is -0.092 ± 0.044.
Turning to M4L, the abundance fitness was -0.078 ± 0.031.
In the case of I34N, the abundance fitness worked out at 0.034 ± 0.13.
For the variant I34C, the abundance fitness is -0.076 ± 0.086.
Next, I34R: -0.092 ± 0.043; I34S: -0.017 ± 0.063.
The figure for I34Y is 0.013 ± 0.093; for S76P it is -0.046 ± 0.072; for S76I it is -0.118 ± 0.14.
Regarding S76C, the abundance fitness came to 0.016 ± 0.12.
The figure for S76W is -0.123 ± 0.076; for S76Y it is 0.09 ± 0.21; for S76T it is -0.053 ± 0.087.
As to V28P, the abundance fitness was -1.09 ± 0.37.
The figure for V28T is -0.538 ± 0.34.
On to V28E, for which the abundance fitness was -1.03 ± 0.27.
Next, V28G: -0.655 ± 0.1.
The figure for V28A is -0.305 ± 0.22; for I8D it is -1.07 ± 0.12.
The figure for I8V is -0.002 ± 0.033.
As to I8Y, the abundance fitness is -0.012 ± 0.068.
Next, I8C: -0.008 ± 0.051; P23G: -0.09 ± 0.039; P23C: 0.021 ± 0.084.
Consider P23V, for which the abundance fitness was -0.297 ± 0.04.
Regarding P23L, the abundance fitness was -0.018 ± 0.042.
Next, P23M: -0.072 ± 0.068.
The figure for P23T is -0.058 ± 0.053; for C41A it is 0.042 ± 0.04.
Next, C41E: 0.01 ± 0.044; C41H: 0.144 ± 0.084; F17I: -0.057 ± 0.057.
For the variant F17C, the abundance fitness was -0.303 ± 0.047.
With F17S, the abundance fitness is -1.29 ± 0.12.
Next, F17E: -0.75 ± 0.072; S58F: -0.29 ± 0.16; S58E: -0.065 ± 0.092.
Take S58W: the abundance fitness is -0.021 ± 0.12.
Next, S58N: -0.007 ± 0.23; P38K: -0.001 ± 0.17; P38C: -0.158 ± 0.11.
Next, P38H: -0.363 ± 0.36.
As to P38V, the abundance fitness was -0.097 ± 0.088.
The figure for I79L is 0.036 ± 0.077.
Next, I79G: -0.42 ± 0.11; I79K: -0.534 ± 0.16; I79T: -0.063 ± 0.12.
In the case of G82T, the abundance fitness is -0.023 ± 0.22.
The figure for G82Q is 0.092 ± 0.37.
Next, G82H: -0.303 ± 0.27.
The figure for G82A is -0.051 ± 0.11; for E42L it is -0.028 ± 0.05.
For the variant E42V, the abundance fitness was -0.062 ± 0.05.
Next, E42S: -0.049 ± 0.057.
The figure for E42D is -0.152 ± 0.076; for E42M it is 0.036 ± 0.063.
Turning to V47I, the abundance fitness is -0.165 ± 0.11.
The figure for V47K is -0.195 ± 0.16.
The figure for V47S is -0.09 ± 0.069; for V47Q it is 0.033 ± 0.26.
The figure for Q26V is -0.025 ± 0.042; for Q26K it is 0.038 ± 0.06.
As for Q26N, the abundance fitness was -0.139 ± 0.12.
The figure for Q26C is -0.039 ± 0.13; for Q26H it is -0.124 ± 0.14; for R81M it is -0.387 ± 0.12.
The figure for R81W is -0.52 ± 0.12; for R81T it is -0.174 ± 0.12; for R81D it is -0.538 ± 0.41.
In the case of L57Q, the abundance fitness is -0.081 ± 0.13.
The figure for L57C is -0.046 ± 0.15; for L57T it is -0.128 ± 0.14; for L57N it is 0.076 ± 0.16.
The figure for H59P is -0.094 ± 0.083.
The figure for H59N is -0.009 ± 0.27; for H59L it is -0.01 ± 0.065; for H59K it is -0.132 ± 0.092.
On to E74T, for which the abundance fitness was -0.422 ± 0.38.
Next, E74R: 0.013 ± 0.069; L66F: 0.053 ± 0.18.
The figure for L66C is -0.398 ± 0.15.
With L66Q, the abundance fitness was -0.557 ± 0.31.
On to L66Y, for which the abundance fitness was -0.736 ± 0.45.
As to L66T, the abundance fitness was -0.589 ± 0.47.
The figure for A12F is -0.075 ± 0.072.

The values are drawn from the Human Domainome abundance scans (Beltran et al. 2025).
